± gives the standard deviation of the averaged measurements.
B1: library; a variant is named by its letters at N, in order (parent)
chain: GCUGUCACCGAGAAACUGUGAAGUAUAUCUUAAACCUGGGCACUUAAAAGAUAUAUGGAGUUAGUAGUGCAACCUGCUCGGUCUGAUGAGUCCNNNNNNGGACGAAACAGC

Experiments:
cyclic di-GMP [1] = variants of: B1; assay: normalized RNA/DNA level without ligand (relative to sTRSVctl = 100) (log10 (% of sTRSVctl)); HEK293T; ligand: cyclic di-GMP (c-di-GMP-II aptamer); higher = less ribozyme self-cleavage, higher mRNA level; conditions: reporter: mCherry (pCS4076), ligand present: no
Outline: (§1)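 Only sequences with at least 100 DNA reads were analyzed, from HEK293T cells transfected with 4 µg per 6-well well of ribozyme switch library plasmids 72 h before RNA extraction with EDTA. Any ligand was added 1 h before transfection. RNA level was defined as RNA over DNA reads, normalized to a spiked-in non-cleaving sequence or to the top sequences, then scaled and log-transformed. The top set was 25 sequences, and the scaling was ×100 followed by log10.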

cyclic di-GMP [2] = variants of: B1; assay: normalized RNA/DNA level with ligand (relative to sTRSVctl = 100) (log10 (% of sTRSVctl)); HEK293T; ligand: cyclic di-GMP (c-di-GMP-II aptamer); ligand concentration (+) RNA-Seq: 1 mM; higher = less ribozyme self-cleavage, higher mRNA level; conditions: reporter: mCherry (pCS4076), ligand present: yes
Outline: as §1

Row | Variant | normalized RNA/DNA level without ligand (log10) (cyclic di-GMP [1]) | normalized RNA/DNA level with ligand (log10) (cyclic di-GMP [2])
1 | UUCAUU | 1.77 ± 0.074 | 1.89 ± 0.094
2 | CUCGUG | 1.63 ± 0.047 | 1.82 ± 0.088
3 | CUCGUC | 1.81 ± 0.032 | 1.93 ± 0.098
4 | CUCGUA | 1.6 ± 0.025 | 1.76 ± 0.086
5 | CUCGUU | 1.762 ± 0.005 | 1.86 ± 0.1
6 | CUCUCA | 1.57 ± 0.056 | 1.78 ± 0.098
7 | CUCUCG | 1.89 ± 0.031 | 1.96 ± 0.1
8 | CUCUCC | 1.81 ± 0.029 | 1.91 ± 0.11
9 | UUCGUU | 1.736 ± 0.0061 | 1.87 ± 0.14
10 | UUCGUA | 1.64 ± 0.021 | 1.82 ± 0.11
11 | UUCGUC | 1.76 ± 0.037 | 1.88 ± 0.058
12 | AUCUUG | 1.657 ± 0.0055 | 1.81 ± 0.093
13 | AUCUUU | 1.69 ± 0.046 | 1.86 ± 0.1
14 | AUCUUC | 1.81 ± 0.038 | 1.92 ± 0.086
15 | AUCUUA | 1.61 ± 0.037 | 1.76 ± 0.12
16 | GUCCAU | 1.66 ± 0.054 | 1.83 ± 0.14
17 | GUCCAC | 1.6752 ± 0.00073 | 1.82 ± 0.054
18 | GUCCAG | 1.76 ± 0.07 | 1.83 ± 0.1
19 | CUCCUC | 1.76 ± 0.026 | 1.87 ± 0.11
20 | CUCCUU | 1.61 ± 0.071 | 1.79 ± 0.051

Row | Variant | normalized RNA/DNA level without ligand (log10) (cyclic di-GMP [1]) | normalized RNA/DNA level with ligand (log10) (cyclic di-GMP [2])
21 | CUCCUG | 1.78 ± 0.065 | 1.85 ± 0.13
22 | GUCGGG | 1.73 ± 0.025 | 1.84 ± 0.13
23 | GUCGGC | 1.65 ± 0.067 | 1.83 ± 0.053
24 | GUCGGU | 1.67 ± 0.039 | 1.83 ± 0.062
25 | UUCCAA | 1.7 ± 0.037 | 1.84 ± 0.13
26 | UUCCAG | 1.76 ± 0.022 | 1.89 ± 0.093
27 | UUCCAC | 1.7863 ± 0.00044 | 1.88 ± 0.13
28 | UUCCAU | 1.73 ± 0.028 | 1.85 ± 0.15
29 | CUCUGG | 1.81 ± 0.066 | 1.86 ± 0.14
30 | CUCUGC | 1.7905 ± 0.00063 | 1.83 ± 0.13
31 | CUCUGU | 1.78 ± 0.062 | 1.91 ± 0.06
32 | CUCUGA | 1.663 ± 0.015 | 1.81 ± 0.09
33 | GUGCAA | 1.64 ± 0.046 | 1.77 ± 0.084
34 | GUGCAC | 1.729 ± 0.0059 | 1.83 ± 0.17
35 | UUGCAA | 1.69 ± 0.075 | 1.81 ± 0.037
36 | UUGCAC | 1.75 ± 0.024 | 1.85 ± 0.11
37 | CUGCAC | 1.742 ± 0.0034 | 1.88 ± 0.1
38 | UUGAGC | 1.73 ± 0.025 | 1.86 ± 0.14
39 | UUGAGU | 1.7248 ± 0.00016 | 1.83 ± 0.15
40 | UUGAGG | 1.79 ± 0.028 | 1.87 ± 0.14

Row | Variant | normalized RNA/DNA level without ligand (log10) (cyclic di-GMP [1]) | normalized RNA/DNA level with ligand (log10) (cyclic di-GMP [2])
41 | UUGAGA | 1.58 ± 0.071 | 1.77 ± 0.11
42 | GUCCCG | 1.76 ± 0.058 | 1.85 ± 0.21
43 | GUCCCA | 1.772 ± 0.0084 | 1.87 ± 0.075
44 | GUCCCU | 1.77 ± 0.024 | 1.92 ± 0.091
45 | GUCCCC | 1.76 ± 0.029 | 1.86 ± 0.061
46 | AUCUAG | 1.62 ± 0.032 | 1.8 ± 0.092
47 | AUCUAA | 1.52 ± 0.019 | 1.7 ± 0.091
48 | AUCUAU | 1.71 ± 0.073 | 1.79 ± 0.067
49 | UUCCUU | 1.73 ± 0.018 | 1.9 ± 0.099
50 | UUCCUG | 1.776 ± 0.017 | 1.91 ± 0.11
51 | UUCCUC | 1.779 ± 0.013 | 1.91 ± 0.1
52 | UUCCUA | 1.68 ± 0.018 | 1.83 ± 0.11
53 | UUCGCA | 1.787 ± 0.014 | 1.9 ± 0.049
54 | UUCGCU | 1.77 ± 0.023 | 1.88 ± 0.087
55 | UUCGCC | 1.7 ± 0.051 | 1.83 ± 0.067
56 | UUCGCG | 1.837 ± 0.0073 | 1.93 ± 0.089
57 | AUGAGC | 1.62 ± 0.066 | 1.8 ± 0.082
58 | AUGAGG | 1.55 ± 0.044 | 1.73 ± 0.085

— the supplement of paper PMC6757056
